From US20240076389A1 (NATIONAL RESEARCH COUNCIL OF CANADA, published 2024)

T1: mouse AXL extracellular domain (Sino cat. 51026-M08H) (mouse, UniProt Q00993 19-445)
T1 construct: extracellular domain; Bought protein; also called mouse AXL ECD
T1 sequence (looked up): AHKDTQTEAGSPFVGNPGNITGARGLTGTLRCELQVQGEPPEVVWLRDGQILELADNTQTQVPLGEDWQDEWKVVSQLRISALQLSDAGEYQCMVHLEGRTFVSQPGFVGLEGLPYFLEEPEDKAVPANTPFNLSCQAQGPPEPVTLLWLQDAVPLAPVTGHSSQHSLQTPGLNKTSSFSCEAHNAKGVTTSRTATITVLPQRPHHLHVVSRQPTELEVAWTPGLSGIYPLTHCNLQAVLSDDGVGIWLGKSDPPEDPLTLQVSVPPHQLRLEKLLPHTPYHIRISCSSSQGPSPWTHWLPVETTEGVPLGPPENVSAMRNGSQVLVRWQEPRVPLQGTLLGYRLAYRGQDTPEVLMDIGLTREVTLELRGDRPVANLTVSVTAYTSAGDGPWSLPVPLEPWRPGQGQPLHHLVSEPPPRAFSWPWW

T2: recombinant human AXL extracellular domain, C-terminally His8-tagged (rhAXL-ECD) (human, UniProt P30530 26-451)
T2 construct: Made in CHO cells; also called (rh)AXL-ECD His8; human AXL ECD
T2 sequence: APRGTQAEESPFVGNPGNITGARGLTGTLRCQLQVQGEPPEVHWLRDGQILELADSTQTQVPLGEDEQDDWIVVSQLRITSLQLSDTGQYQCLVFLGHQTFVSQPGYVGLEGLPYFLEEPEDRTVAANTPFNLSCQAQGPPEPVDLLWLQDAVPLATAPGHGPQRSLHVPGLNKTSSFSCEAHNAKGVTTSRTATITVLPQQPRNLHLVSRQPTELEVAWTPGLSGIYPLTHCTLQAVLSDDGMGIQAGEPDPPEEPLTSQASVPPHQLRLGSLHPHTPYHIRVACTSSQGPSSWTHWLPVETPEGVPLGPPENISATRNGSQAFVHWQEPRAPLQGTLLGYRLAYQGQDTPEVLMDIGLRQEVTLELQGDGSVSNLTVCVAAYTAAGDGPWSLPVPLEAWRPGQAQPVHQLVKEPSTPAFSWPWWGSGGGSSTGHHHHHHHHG


Tests used:
[1] = target: T1, mouse AXL extracellular domain (Sino …); experiment: ELISA on coated mouse AXL ECD (100 ng/well), VHH-Fc
Protocol: ELISA. ELISAs against human, cyno and mouse AXL ECDs were conducted by immobilizing 100 ng of each protein in wells of Nunc MaxiSorp microplates overnight. Human AXL (aa 1-451) and cyno AXL (aa 1-449) were produced recombinantly as described in Example 10. Mouse AXL was purchased from Sino (cat. 51026-M08H). The next day, plates were blocked with 5% (w/v) dried milk in PBS. Murine mAbs (either hybridoma- or recombinantly-produced) or VHH-Fcs were diluted in PBS containing 1% BSA and 0.1% Tween-20 and added to wells for 2 hours at room temperature. Wells were washed 5× with PBS containing 0.1% Tween-20, then HRP-labeled protein A (diluted 1:1000 in PBS containing 1% BSA and 0.1% Tween™-20) was added to wells for 1 hour at room temperature. Wells were washed again 5× with PBS/0.1% Tween-20 and developed using TMB substrate. Absorbance was measured at 450 nm. As a positive control for mouse AXL binding, a commercial anti-mouse AXL mAb (clone 175128, R&D Systems MAB8541, rat IgG2A) was used and detected with donkey […] secondary antibody.

[2] = target: T2, recombinant human AXL extracellular …; experiment: SPR Biacore T200, mAb captured on anti-Fc, AXL ECD flowed, multi-cycle kinetics
Protocol: (§1) Surface plasmon resonance. For murine mAbs, binding to human and cynomolgus AXL ECD was assessed using a Biacore T200 instrument. Briefly, either anti-mouse or anti-human Fc antibody was immobilized on a research-grade CM5 series S sensor chip using amine coupling in acetate buffer. Murine or recombinant chimeric murine-human mAbs (mouse VH/VL; human constant regions) were captured, then recombinant human or cyno AXL ECD was flowed over the surface at different concentration ranges (0.1-500 nM) depending on the antibody. The running buffer was PBS/Tween-20 and the flow rate 100 uL/min. All binding studies were performed at 25° C. Surfaces were regenerated using 10 mM glycine, pH 1.5.

[3] = target: T3, recombinant cynomolgus AXL extracellular domain (cynomolgus); experiment: as above
T3 construct: range 1-449; also called Cyno AXL; cyno AXL ECD
Protocol: as §1

[4] = target: T2, recombinant human AXL extracellular …; experiment: SPR Biacore T200, mAb captured on anti-Fc, AXL ECD flowed (footnote b printed in a row of footnote a)
Protocol: as §1

binding result [1]	Kd [2]	koff [2]	kon [2]	Kd [3]	koff [3]	kon [3]	koff [4]	Binder
no binding								NRC-sdAb001-Fc (VHH-human IgG1 Fc fusion) (Fc fusion, VHH fused N-terminally to human IgG1 Fc, made in HEK293 cells; also called NRC-sdAb0001-Fc; NRC-sdAb001-hIgG1; not shown: human IgG1 Fc) QVKLEESGGGLVQAGGSLRLSCTASASISSFDIMGWYRQAPGKQRELVAAITTLDIANYRDSVKGRFTISRDNAKNTVYLQMDSLKPEDTARYHCAAFQSDQNYWGQGTQVTVSS
	0.4 nM	0.00056 s⁻¹	1.2e+06 M⁻¹ s⁻¹	0.2 nM	0.00023 s⁻¹	1.8e+06 M⁻¹ s⁻¹	0.00059 s⁻¹	hFC-F107-10G1 (antibody, human IgG1, kappa, V domains shown, Chimeric mAb, human IgG1 / human kappa constant regions; also called mAb F107-10G1) VH: EVNLVESGGGVVKPGASLKLSCEASGFTFSNYGMSWVRQTSDKRLEWVASISGGGGRTYYLDNVKGRFIISRENAKNTLYLQMSSLKSEDTALFYCARGARASYFAMDYWGQGSSVTVSS VL: VIVMTQSHKFMSTSVGDRVSITCKASQDVTTAVAWYQQKPGQSPKLLIYWASTRHTGVPDRFTGSGSGTDYSLTISNVQTEDLAFYYCQQHFTTPLTFGAGTKLELKR
